Laboratory results published in patent publication US20030088058A1, “ISOPENICILLIN N SYNTHETASE AND DEACETOXYCEPHALOSPORIN C SYNTHETASE ENZYMES AND METHODS” (priority 1996, published 2003).

Columns and labels:
DAOCS [1] = biological target: DAOCS (Streptomyces clavuligerus, UniProt P18548); details: compared with conversion of penicillin N to DAOC; cited from earlier work
DAOCS [2] = test: Specific activity of DAOCS mutants by turnover of α-[14C]-ketoglutarate with penicillin substrates; assay type: biochemical
Experimental: (§1) Almost all the mutants expressed well, except R88I, R88Q and R87Q/R287Q whereby the expression level was only about half of others. Generally the expression level of colonies was about 10˜20% of soluble protein at 27° C. Moreover, recombinant enzyme of P168V mutant was insoluble. These mutant enzymes were purified to ˜60-70% purity with Resouce-Q column (Phamacia). The activity of each mutant with respect to penicillin N and its side-chain analogues was analysed by bioassay. […] Screening of the substrate conversion of penicillins mutants was also performed using a assay with radiolabelled α-ketoglutarate. The reaction conditions were the same as for bioassay except that [^14C]-α-ketoglutarate was used.

E. coli X580 cells = test: Hole-plate bioassay containing penicillinase, on enzyme reaction products; assay type: cell-based; details: products of the reaction with penicillin G; hole-plate assay with penicillinase
Experimental: as §1

[3] = Expression of recombinant DAOCS mutants, solubility of the enzyme; details: expressed at 27° C.
From the text: A U.S.E mutagenesis kit (Phamacia) was used for all the mutagenesis reactions and a Pst I restriction site on the pET vector was selected. Selection of single and double mutants were successfully performed from colonies by restriction enzyme digestion. (Sambrook et al, Molecular Cloning, A Laboratory Manual, Cold Spring Harbour, USA, 1989). […] Mutations of DAOCS (Table 1) were confirmed by sequencing according to the dideoxy method of Sanger. Mutants were designed after study of the IPNS-Mn^2+ and the IPNS-Fe(II)-ACV structures. Polar residues with which the side chain D-α-aminoadipoyl (carboxylate and amino groups) might bind to were identified.
as §1

B1: Wild type: unmodified deacetoxycephalosporin C synthase (DAOCS, expandase) (protein, UniProt P18548 1-311, looked up)
Deacetoxycephalosporin C …: MDTTVPTFSLAELQQGLHQDEFRRCLRDKGLFYLTDCGLTDTELKSAKDLVIDFFEHGSEAEKRAVTSPVPTMRRGFTGLESESTAQITNTGSYSDYSMCYSMGTADNLFPSGDFERIWTQYFDRQYTASRAVAREVLRATGTEPDGGVEAFLDCEPLLRFRYFPQVPEHRSAEEQPLRMAPHYDLSMVTLIQQTPCANGFVSLQAEVGGAFTDLPYRPDAVLVFCGAIATLVTGGQVKAPRHHVAAPRRDQIAGSSRTSSVFFLRPNADFTFSVPLARECGFDVSLDGETATFQDWIGGNYVNIRRTSKA
Efficiency of conversion of penicillin G to phenylacetylcephalosporin C (DAOCS [1]): much less efficient | Specific activity (DAOCS [2]; substrate 6-Aminopenicillanic acid (6-APA)): 1.0 ± 0.2 nmol/min/mg | Specific activity (DAOCS [2]; substrate Adipyl-6-APA): 2.7 nmol/min/mg | Specific activity (DAOCS [2]; substrate Ammoxicillin): 1.4 ± 0.6 nmol/min/mg | Specific activity (DAOCS [2]; substrate Ampicillin): 0 nmol/min/mg | Specific activity (DAOCS [2]; substrate Carbenicillin): 0 nmol/min/mg | Specific activity (DAOCS [2]; substrate Cloxacillin): 1.6 ± 0.6 nmol/min/mg | Specific activity (DAOCS [2]; substrate Methicillin): 0 nmol/min/mg | Specific activity (DAOCS [2]; substrate Penicillin G): 5.1 ± 0.4 nmol/min/mg | Specific activity (DAOCS [2]; substrate Penicillin N, uncoupled decarboxylation subtracted): 6.4 nmol/min/mg | Specific activity (DAOCS [2]; substrate Penicillin V): 5.3 ± 0.3 nmol/min/mg | Oxacillin accepted as substrate (in words) (DAOCS [2]; substrate oxacillin): neither oxacillin nor piperacillin are substrates | Specific activity (DAOCS [2]; substrate oxacillin): 0 nmol/min/mg | Piperacillin accepted as substrate (in words) (DAOCS [2]; substrate piperacillin): neither oxacillin nor piperacillin are substrates | Specific activity (DAOCS [2]; substrate piperacillin): 0 nmol/min/mg | Inhibition of growth of E. coli X580 cells (E. coli X580 cells): showed the same inhibition

B2: P168V: DAOCS mutant whose recombinant enzyme was insoluble (protein, UniProt P18548 1-311, looked up, variant P168V)
Deacetoxycephalosporin C …: MDTTVPTFSLAELQQGLHQDEFRRCLRDKGLFYLTDCGLTDTELKSAKDLVIDFFEHGSEAEKRAVTSPVPTMRRGFTGLESESTAQITNTGSYSDYSMCYSMGTADNLFPSGDFERIWTQYFDRQYTASRAVAREVLRATGTEPDGGVEAFLDCEPLLRFRYFPQVVEHRSAEEQPLRMAPHYDLSMVTLIQQTPCANGFVSLQAEVGGAFTDLPYRPDAVLVFCGAIATLVTGGQVKAPRHHVAAPRRDQIAGSSRTSSVFFLRPNADFTFSVPLARECGFDVSLDGETATFQDWIGGNYVNIRRTSKA
Solubility of recombinant enzyme [3]: insoluble
